Molecular target: acyl-carrier-protein synthase (AcpS) from Staphylococcus aureus (Staphylococcus aureus)
Experiment: crystal structure

“acyl-carrier-protein synthase (AcpS) from Staphylococcus aureus (enzyme)” was tested, and the stoichiometry N was 3.
